Experimental data published in the supplement of paper PMC12764529.
± gives the half width of the 95% confidence interval.

What was measured:
[1] = folding stability dG unfold from chymotrypsin proteolysis; higher = more stable
Outline: (§1)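 Designed mini-proteins (under 80 residues, no cysteine) in a PA-tagged cDNA display construct were digested with trypsin and chymotrypsin. Each protease was used at 11 concentrations (threefold dilutions) plus a no-protease condition, followed by sequencing. K50 was inferred by Bayesian fitting of sequencing counts, and unfolding free energy was derived against a sequence-predicted unfolded-state K50 and a shared folded-state K50, per protease or combined. Only designs with AlphaFold2 dimer inter-PAE above 15 were kept.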

[2] = folding stability dG unfold from trypsin proteolysis; higher = more stable
Outline: as §1

[3] = folding stability dG unfold (combined trypsin and chymotrypsin); higher = more stable
Outline: as §1

Q: Which “folding stability dG unfold” value [1] does the source give for “SAGGKIEELAKEIAQEHNIKSVDVQTTGGYPKVNVRFRNPKEGRMYRIKIHVPPDGNIKISIEPQELSAGGS [r16_433_TrROS]” here?
A: 2.08 ± 0.13 kcal/mol

Q: What about the “folding stability dG unfold” value [2] of the same sequence?
A: 1.87 ± 0.034 kcal/mol

Q: And the “folding stability dG unfold” value [3]?
A: 1.92 ± 0.26 kcal/mol

Q: What does the source list for “SAGGNFEIWRHPENGILWIEFRIPAGEPLEIPLKFKAPNGKPIKITKFHIWPMNDWWYIKFIIKIPPSAGGS [r16_499_TrROS]”?
A: folding stability dG unfold [1]: 2.84 ± 0.06 kcal/mol; folding stability dG unfold [2]: 3.15 ± 0.12 kcal/mol; folding stability dG unfold [3]: 2.99 ± 0.25 kcal/mol

Q: With “SAGGSAGGSAGGKPFKVLSVEPLEIGDKKYLRVRFEDGRVYEFPVSFDFGPDGNNVLPVESAGGSAGGSAGG [r7_931_TrMRF]” as the sequence, how does the “folding stability dG unfold” value [1] read?
A: 2.59 ± 0.045 kcal/mol

Q: And the “folding stability dG unfold” value [2]?
A: 1.93 ± 0.041 kcal/mol

Q: And the “folding stability dG unfold” value [3]?
A: 2.37 ± 0.043 kcal/mol

Q: Which results are given for “SAGGSAPPQTIPIIIKDPNGKVRIEPVQFDPGPGNFNWDIEHPNGEKHTITFTGPPDDLPPGDYIKSAGGSA [r15_596_TrROS]”?
A: folding stability dG unfold [1]: 1.37 ± 0.068 kcal/mol; folding stability dG unfold [2]: -0.575 ± 0.13 kcal/mol; folding stability dG unfold [3]: 0.784 ± 0.17 kcal/mol

Q: Which “folding stability dG unfold” value [1] does the source give for “SAGGSAGGSAGGMPILEIDVAGDSPDIAIETAKAIVDELPTYNPENVKVIIKDGKVIIGSAGGSAGGSAGGS [r10_182_TrMRF]” here?
A: 1.66 ± 0.12 kcal/mol

Q: And the “folding stability dG unfold” value [2]?
A: 0.498 ± 0.018 kcal/mol

Q: And the “folding stability dG unfold” value [3]?
A: 1.25 ± 0.15 kcal/mol

Q: Which results are given for “SAGGSLRGVLFDPEGGRVYVLEYDPALGSFRVRPFPVPPVLPISREAAAEILRRELGLPREVVERLLASAGG [r13_824_TrMRF]”?
A: folding stability dG unfold [1]: 3.438 ± 0.033 kcal/mol; folding stability dG unfold [2]: 2.58 ± 0.082 kcal/mol; folding stability dG unfold [3]: 3.15 ± 0.093 kcal/mol

Q: Which “folding stability dG unfold” value [1] does the source give for “SAGGSAGGMTVTIELPGSTYTVELPSSVKSVSELKVLEDGTLVLTFPSTGTTVTVPIPPPGSHHSAGGSAGG [r6_370_JUSTAS]” here?
A: 0.878 ± 0.13 kcal/mol

Q: What about the “folding stability dG unfold” value [2] of the same sequence?
A: 1.03 ± 0.059 kcal/mol

Q: What about the “folding stability dG unfold” value [3] of the same sequence?
A: 1.01 ± 0.11 kcal/mol

Q: With “SAGGSAGGSAGGMEEIRELLEKAKKEGLESITVTVNDPAEATEVRAYAEEKGIPVTINASAGGSAGGSAGGS [r10_307_JUSTAS]” as the sequence, how does the “folding stability dG unfold” value [1] read?
A: -1.01 ± 0.56 kcal/mol

Q: And the “folding stability dG unfold” value [2]?
A: 0.415 ± 0.048 kcal/mol

Q: And the “folding stability dG unfold” value [3]?
A: -0.0348 ± 0.16 kcal/mol

Q: With “SAGGSMLEKEEGDTLVKTVLQPVPEDLSREVLVTTTTKLLPNGSEVTVTVRSPFTGEPLSSSVVLSSAGGSA [r2_412_JUSTAS]” as the sequence, how does the “folding stability dG unfold” value [1] read?
A: 0.635 ± 0.13 kcal/mol

Q: And the “folding stability dG unfold” value [2]?
A: 0.458 ± 0.054 kcal/mol

Q: And the “folding stability dG unfold” value [3]?
A: 0.602 ± 0.066 kcal/mol

Q: What does the source list for “SAGGSSPAARRLAKRIAKLMMKKHPPGEKRTVEIELPDGVEIKATFNNNGNIDDIEIRSPDGEPIISAGGSA [r2_84_TrROS]”?
A: folding stability dG unfold [1]: 0.482 ± 0.4 kcal/mol; folding stability dG unfold [2]: 0.771 ± 0.17 kcal/mol; folding stability dG unfold [3]: 0.644 ± 0.36 kcal/mol

Q: Which “folding stability dG unfold” value [1] does the source give for “SAGGGKPVNILIKKPNEIKIIPIPVVKIEPLESPDKLYIIFEDGYIMEFDPKTLELLSIEKVKPIEEASAGG [r13_636_TrMRF]” here?
A: 1.94 ± 0.066 kcal/mol

Q: And the “folding stability dG unfold” value [2]?
A: 1.35 ± 0.11 kcal/mol

Q: And the “folding stability dG unfold” value [3]?
A: 1.69 ± 0.3 kcal/mol

Q: Which “folding stability dG unfold” value [1] does the source give for “SAMIIIRVKSKEELEEAIRRLAEELGIEDATLEQIREALLRAGAKIVSIERDPEREDYVLIVIELPPEPSAG [r14_678_TrROS_Hall]” here?
A: 4.1 ± 0.084 kcal/mol

Q: And the “folding stability dG unfold” value [2]?
A: 4.01 ± 0.1 kcal/mol

Q: And the “folding stability dG unfold” value [3]?
A: 4.05 ± 0.071 kcal/mol

Q: For “SAGGSALLEALKKLAEELGLEVELEEVRVETETRTETRTLPDGRTETRTETEVRVEVKVTVRPKPASAGGSA [r15_561_TrROS_Hall]”, which “folding stability dG unfold” value [1] is on record?
A: 2.72 ± 0.1 kcal/mol

Q: And the “folding stability dG unfold” value [2]?
A: 2.59 ± 0.075 kcal/mol

Q: What about the “folding stability dG unfold” value [3] of the same sequence?
A: 2.71 ± 0.082 kcal/mol

Q: Which results are given for “SAGGRIVINLNPENGYLMISIRMPHRRYDPEDGKGKPEPMSMSIMFPPEEIEKFAEEFGMPIEIVPWSAGGS [r8_337_TrROS]”?
A: folding stability dG unfold [1]: 1.4 ± 0.16 kcal/mol; folding stability dG unfold [2]: 1.42 ± 0.071 kcal/mol; folding stability dG unfold [3]: 1.56 ± 0.18 kcal/mol

Q: Which “folding stability dG unfold” value [1] does the source give for “SAGGSAMPEVKVEVEIIERDPENEDYVLVRIKVEVRFKTEDGEEVEVREERELLVFPSEEELKKALSAGGSA [r15_1019_TrROS_Hall]” here?
A: 1.82 ± 0.048 kcal/mol

Q: And the “folding stability dG unfold” value [2]?
A: 2.02 ± 0.064 kcal/mol

Q: What about the “folding stability dG unfold” value [3] of the same sequence?
A: 1.89 ± 0.33 kcal/mol

Q: What does the source list for “SAGGMKKKIVEIEIVEVKYDEETNEVTIKIKIKNENGEEIEIEVTMSKEELEKMTPEELKKLVKELLKSAGG [r13_512_TrROS_Hall]”?
A: folding stability dG unfold [1]: 2.18 ± 0.24 kcal/mol; folding stability dG unfold [2]: 2.16 ± 0.2 kcal/mol; folding stability dG unfold [3]: 2.12 ± 0.3 kcal/mol

Q: Which “folding stability dG unfold” value [1] does the source give for “SAGGSAGGSAGPYKVKVTLKNGEVLEFTIPEEFKDLKEVKIDLPEELKENIVKVEIEPLESAGGSAGGSAGG [r17_528_TrMRF]” here?
A: 3.199 ± 0.02 kcal/mol

Q: And the “folding stability dG unfold” value [2]?
A: 2.56 ± 0.1 kcal/mol

Q: What about the “folding stability dG unfold” value [3] of the same sequence?
A: 2.95 ± 0.059 kcal/mol

Q: With “SAGGSAGGSAGGAVFKTPDGTTLTLLPDGTVVVTEYSPDGVPLRVETRTMTAADIAAAASAGGSAGGSAGGS [r10_874_JUSTAS]” as the sequence, how does the “folding stability dG unfold” value [1] read?
A: 1.5 ± 0.088 kcal/mol

Q: What about the “folding stability dG unfold” value [2] of the same sequence?
A: -0.022 ± 0.12 kcal/mol

Q: And the “folding stability dG unfold” value [3]?
A: 1.01 ± 0.085 kcal/mol

Q: Which “folding stability dG unfold” value [1] does the source give for “SAGGSAGGKEPFTVDKVEATVPFPGADGTEGVVLVTLPNGEKRLIPASELPLENLQPDGTVSSASAGGSAGG [r6_609_TrMRF]” here?
A: 0.328 ± 0.037 kcal/mol

Q: And the “folding stability dG unfold” value [2]?
A: 0.161 ± 0.034 kcal/mol

Q: And the “folding stability dG unfold” value [3]?
A: 0.302 ± 0.11 kcal/mol

Q: Which “folding stability dG unfold” value [1] does the source give for “SAGGSAGGMIEVYEEGDKLTVLNPGPDPNKKVTVTLDNGSATSSRIPEGTYVTTATVAPDATLKSAGGSAGG [r6_70_JUSTAS]” here?
A: -1.06 ± 0.36 kcal/mol

Q: And the “folding stability dG unfold” value [2]?
A: 0.14 ± 0.028 kcal/mol

Q: What about the “folding stability dG unfold” value [3] of the same sequence?
A: -0.169 ± 0.099 kcal/mol

Q: Which “folding stability dG unfold” value [1] does the source give for “SAGGSAGGSAGGSGNYVPGPSLVTFYDPKTNKWTVVKSAPEEAVKLKASLPENVAKISLSAGGSAGGSAGGS [r4_282_JUSTAS]” here?
A: -0.0321 ± 0.27 kcal/mol

Q: What about the “folding stability dG unfold” value [2] of the same sequence?
A: -0.237 ± 0.21 kcal/mol

Q: And the “folding stability dG unfold” value [3]?
A: -0.179 ± 0.32 kcal/mol
